Reference: patent publication US20240207380A1, “NOVEL PEPTIDE TARGETING DENDRITIC CELLS, AND COMPOSITION FOR TREATING CANCER COMPRISING SAME” (INDUSTRY FOUNDATION OF CHONNAM NATIONAL UNIVERSITY, priority 2021, published 2024)
Entries after “also recorded” stand apart in the source; their conditions may differ.

Key:
[1] = system: Bone marrow-derived dendritic cells (BMDCs); test: Antigen-presenting cell activation (CD80 and CD86 on BMDC surface); type: cell-based, C57BL/6 mice; conditions: 0.5 μg/ml, 24 hours
Text: The cells were stained on ice with fluorophore-labeled antibodies before flow cytometry analysis.

CD8^+ T cells = test: Peptide-mediated CD8+ T cell activation (CFSE dilution, coculture with pulsed BMDCs); type: cell-based, mice
Procedure: CD8^+ splenocytes from TC-1 tumor-bearing mice were prepared using the MagniSort™ Mouse CD8 T Cell Enrichment kit (Invitrogen, 8804-6822) according to the manufacturer's instructions, and were labeled with 5 μM CFSE. EF- or DEF-pulsed BMDCs were cocultured with CFSE-stained CD8^+ cells at a ratio of 1:5 (BMDC:CD8^+ T cells) for 3 days in RPMI 1640 medium supplemented with 10% fetal bovine serum (HyClone, Logan, UT), 1% penicillin/streptomycin (Life Technologies, Grand Island, NY), and 50 μM 2-mercaptoethanol (Sigma, 516732). CD8^+ T cell proliferation was assessed by CFSE dilution using flow cytometry.

[2] = In vivo distribution of FNR675-labeled peptides in draining inguinal lymph nodes; parameters: species or system  mice; conditions: subcutaneous
Procedure: Next, the conjugated proteins were quantitatively determined from the calibration curve of the FNR675-NHS ester using a UV-Vis spectrophotometer (UV-2700, Shimadzu, Japan).
The fluorescence signals in the draining lymph nodes were determined and are depicted in FIG. 16. In addition, six hours after injection, the draining inguinal LN (iLN) cells were prepared, and then in vivo DC-targeting was determined by FACS analysis gating upon CD11c^+ cell population, and the results are depicted in FIG. 17.

TLR5 = biological target: T1, TLR5 (Homo sapiens, UniProt O60602); type: cell-based; conditions: HEK-Blue hTLR5 cells
T1 construct: host or cells: HEK-Blue hTLR5 cells (HEK293-derived reporter line, own knowledge: stably transfected with the human TLR5 gene and an NF-kB-inducible SEAP reporter)
Procedure: Also, the EC50 was calculated using triplicate OD 620 nm values for each protein concentration over a wide range of protein concentrations (0.0375 nM-19.29 nM at the AAT Bioquest website).

[3] = system: IFN-γ-producing cells of spleen (SPL) or tumor-draining lymph nodes (TDLNs); test: CTL peptide-specific immune response (IFN-γ ELISpot); type: in vivo, mice
Procedure: Single-cell suspensions from the spleen (SPL) or tumor-draining lymph nodes (TDLNs) were prepared by administering the peptides of the present disclosure to mice with or without tumors in the same manner as in Example 5. A total of 1×10^6 SPL or 2.5×10^5 TDLNs cells were seeded into 96-well Filtration ELISpot plates (Merck, HAMAS4510) and stimulated with 1 μg/ml E7 CTL peptide (amino acids 49-57: […]). Cells stimulated with 10 ng/ml concanavalin A were used as a positive control. After two days of culture of SPL cells or five days of culture of TDLN cells, IFN-γ-producing cells were detected by using the mouse IFN-γ ELISpot Set (BD Bioscience, 551083) according to the manufacturer's instructions. IFN-γ-producing cells were analyzed using a CTL-ImmunoSpot Analyzer and ImmunoSpot Professional Software version 5.0 (Cellular Technology, Shaker Heights, OH, USA).

[4] = system: Bone marrow-derived dendritic cells (BMDCs); test: Cellular uptake of EF and DEF in BMDCs (flow cytometry); type: cell-based, C57BL/6 mice; conditions: 2 hours, anti-FlaB staining, FACS gated on CD11c+
Procedure: Cells treated with PBS alone were used as a negative control. After incubation, the cells were washed twice with cold 1×PBS containing 3% FBS and then stained with anti-mouse CD11c^+ antibody (eBioscience, Clone: N418, 25-0114-82) for 1 hour at 4° C. and fixed with 4% paraformaldehyde (T&I, BPP-9004) for 10 minutes at room temperature. The cells were permeabilized using a permeabilization kit according to the manufacturer's instructions (Invitrogen, 00-8333-56) and stained with anti-FlaB antibodies, followed by FACS analysis by gating upon the CD11c^+ population. The results are depicted in FIG. 14.

TC-1 cells [5] = test: Antitumor effect in TLR5-knockout TC-1 tumor-bearing mice; type: in vivo
Text: (§1) Wild-type (WT), TLR5-knockout (TLR5^−/−) and NLRC4-knockout (NLRC4^−/−) mouse groups were implanted with TC-1 cells in the right mid-flank. […] The results are depicted in FIG. 25.

TC-1 cells [6] = test: Antitumor effect in NLRC4-knockout TC-1 tumor-bearing mice; type: in vivo; conditions: 20 μg
Text: as §1

[7] = system: CTL epitope-specific tetramer+ CD8+ cells; test: Antigen-specific T cell immune response (E7 tetramer+ CD8+ cells in peripheral blood); type: in vivo, mice
Procedure: The peptides of the present disclosure as in Example 5 were administered to mice with or without tumors and peripheral blood was collected therefrom. After removal of RBC by RBC lysis buffer, the blood was stained with the tetramer antibody (PE-conjugated HPV16 H-2Db-[…], TB-5008-1, MBL) and CD8 antibody and analyzed by flow cytometry.

TC-1 cells [8] = test: Antitumor efficacy of peptides in TC-1 tumor-bearing mice (survival, tumor volume); type: in vivo, C57BL/6 mice
Procedure: Female SPF C57BL/6 mice 7 to 8 weeks old were purchased from ORIENT (Seongnam-si, Gyeonggi-do, Korea). TC-1 cells were cultured in RPMI 1640 medium supplemented with 10% heat-inactivated FIBS, 100 units/ml penicillin, and 100 μg/ml streptomycin at 37° C. under 5% CO2. Tumors were established in mice by subcutaneous injection of 5×10^4 TC-1 cells in 100 μl of PBS into the right mid-flank of each mouse. […] Tumor growth was monitored every three days. The tumor volume was calculated with formula V=(tumor length)×(tumor width)×(tumor height)/2.
The tumor-bearing mice were administered the all-in-one vaccine of the present disclosure as in Example 5 and measured for survival rate and tumor volume in the same manner. For a positive control, a group of mice was immunized with HPV16 E7 CTL peptide (amino acid 49-57: […]), known as a cytotoxic T lymphocyte (CTL)-inducing peptide.

BMDCs or RAW264.7 cells = test: Intracellular distribution of EF and DEF by confocal microscopy; type: cell-based; conditions: 20 μg/ml, 2 hours
Procedure: After incubation, the cells were harvested, washed, fixed with 100% methanol for 15 minutes at room temperature, and stained with anti-mouse CD11c^+ APC-conjugated antibody and DAPI, a nuclear stain, for 1 hour at room temperature. After two washes with cold 1×PBS, the intercellular distributions of the peptides within the dendritic cells (CD11c^+) were determined by confocal microscopy (LSM800).

[9] = versus E7 Pep+F positive control

T1 sequence (O60602 21-858): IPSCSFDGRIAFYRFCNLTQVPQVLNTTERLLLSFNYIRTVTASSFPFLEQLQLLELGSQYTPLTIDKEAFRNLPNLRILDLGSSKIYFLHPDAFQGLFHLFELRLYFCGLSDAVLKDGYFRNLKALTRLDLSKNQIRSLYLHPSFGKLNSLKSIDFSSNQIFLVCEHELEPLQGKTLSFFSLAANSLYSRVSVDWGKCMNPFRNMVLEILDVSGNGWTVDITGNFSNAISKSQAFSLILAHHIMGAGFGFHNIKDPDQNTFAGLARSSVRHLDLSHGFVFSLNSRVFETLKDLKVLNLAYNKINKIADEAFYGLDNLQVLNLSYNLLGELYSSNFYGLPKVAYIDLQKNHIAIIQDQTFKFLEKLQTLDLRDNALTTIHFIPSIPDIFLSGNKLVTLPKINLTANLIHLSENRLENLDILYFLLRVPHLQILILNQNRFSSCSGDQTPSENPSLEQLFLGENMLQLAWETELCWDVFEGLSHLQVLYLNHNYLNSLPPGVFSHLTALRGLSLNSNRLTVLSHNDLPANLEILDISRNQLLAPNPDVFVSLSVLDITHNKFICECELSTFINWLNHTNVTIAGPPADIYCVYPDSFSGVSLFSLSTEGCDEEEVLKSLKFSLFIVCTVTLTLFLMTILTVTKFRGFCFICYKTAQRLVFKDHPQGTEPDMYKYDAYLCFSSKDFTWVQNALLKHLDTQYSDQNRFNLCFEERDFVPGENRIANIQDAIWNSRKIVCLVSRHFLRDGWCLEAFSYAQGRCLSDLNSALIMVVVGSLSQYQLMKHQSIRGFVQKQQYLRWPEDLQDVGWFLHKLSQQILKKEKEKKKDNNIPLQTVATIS

B1: DEF (protein)
chain: MRFFCLGPLGFTKVDIDGPAGQAEPDRAHYNIVTFCCKCDSTLRLCVQSTHVDIRTLEDLLMGTLGIVCPICSQKPEFIDGPAGQAEPDRAHYNIVTFCCKCDSTLRLCVQSTHVDIRTLEDLLMGTLGIVCPICSQKPVDIDGPAGQAEPDRAHYNIVTFCCKCDSTLRLCVQSTHVDIRTLEDLLMGTLGIVCPICSQKPVDIDGPAGQAEPDRAHYNIVTFCCKCDSTLRLCVQSTHVDIRTLEDLLMGTLGIVCPICSQKPKLMAVNVNTNVAAMTAQRYLNNANSAQQTSMERLSSGFKINSAKDDAAGLQISNRLNVQSRGLDVAVRNANDGISIAQTAEGAMNETTNILQRMRDLSLQSANGSNSKSERVAIQEEVTALNDELNRIAETTSFGGNKLLNGTYGTKAMQIGADNGEAVMLSLKDMRSDNVMMGGVSYQAEEGKDKNWNVAAGDNDLTIALTDSFGNEQEIEINAKAGDDIEELATYINGQTDLVKASVGEGGKLQIFAGNNKVQGEIAFSGSLAGELGLGEGKNVTVDTIDVTTVQGAQESVAIVDAALKYVDSHRAELGAFQNRFNHAISNLDNINENVNASKSRIKDTDFAKETTQLTKTQILSQASSSILAQAKQAPNSALSLLGLEHHHHHH
modifications: DCpep6::4xE7deltaNLS::FlaB (DEF)
With B1 the “expression of CD80 and CD86 on BMDC surface (FIG. 20)” value [1] was “significantly enhanced expression”, the “division index of CD8+ T cells (FIG. 26)” value (CD8^+ T cells; NLRC4-knockout (NLRC4^−/−) mice, 1 μg/mL) was “rather decreased” and the “division index of CD8+ T cells (FIG. 26)” value (CD8^+ T cells; wild-type (WT) mice BMDCs pulsed with 1 μg/mL for 24 hours, coculture 1:5 for 3 days) was “significantly enhanced”. For the same molecule, the “time to removal from the draining lymph nodes post administration” value [2] was at most 24 h, the “NF-κB activity levels (FIG. 13)” value (TLR5) was “increased the activity in dose-dependent manners” and the “IFN-γ production (FIG. 24)” value ([3]; mice without tumors) was “significantly higher level”. For the same molecule, the “IFN-γ production level in SPL and TDLNs (FIG. 23)” value ([3]; tumor-bearing mice, compared to PBS, E and EF) was “significantly enhanced”, the “cellular uptake in bone marrow-derived dendritic cells (FIG. 14)” value [4] was “concentration-dependent cellular uptake” and the “survival and tumor volume effect in TLR5^−/− mice relative to wild-type mice (FIG. 25)” value (TC-1 cells [5]; 20 μg, TLR5^−/− versus wild-type) was “significantly lower levels”. For the same molecule, the “survival (FIG. 25)” value (TC-1 cells [5]; TLR5^−/− mice, 20 μg subcutaneous peritumoral three times, compared to PBS group) was “significantly longer survival”, the “tumor volume (FIG. 25)” value (TC-1 cells [5]; TLR5^−/− mice, 20 μg, compared to PBS group) was “decreased” and the “effects on tumor volume and survival (FIG. 25)” value (TC-1 cells [6]) was “abolished”. The “tetramer-positive cells in peripheral blood (FIG. 22)” value ([7]; mice without tumors) was “remarkably high levels”, the “CTL epitope-specific tetramer-positive CD8+ cells in peripheral blood (FIG. 21)” value ([7]; tumor-bearing mice, compared with PBS, E and EF groups) was “significantly higher levels” and the “tumor volume (FIG. 19)” value (TC-1 cells [8]; among all administered groups) was “smallest”. For the same molecule, the “survival (FIG. 18)” value (TC-1 cells [8]; compared with E7ΔNLS (E)-administered group) was “significantly longer survival; also recorded: longest survival”, the “survival compared with HPV16 E7 CTL peptide+FlaB (E7 Pep+F) group (FIG. 18)” value (TC-1 cells [8]; [9]) was “notably longer survival” and the “tumor volume compared with HPV16 E7 CTL peptide+FlaB (E7 Pep+F) group (FIG. 19)” value (TC-1 cells [8]; [9]) was “remarkably much smaller”. For the same molecule, the “intracellular location (FIG. 15)” value (BMDCs or RAW264.7 cells) was “located in the cytoplasm of CD11c^+ cells”.
